Experimental data published in publication PMC6043352 (Journal of molecular biology, 2018).

Columns and labels:
ubiquitin [1] = target: T1, ubiquitin (UniProt P0CG47 1-76); experiment: ITC
ubiquitin [2] = target: T1, ubiquitin; experiment: NMR titration

Kd (ubiquitin [1]): ~49 µM
Kd (ubiquitin [2]): ~27 µM
B1: human REV1 (932–1039) (domain or fragment, UniProt Q9UBZ9 932-1039, looked up)
chain: VPSPSQLDQSVLEALPPDLREQVEQVCAVQQAESHGDKKKEPVNGCNTGILPQPVGTVLLQIPEPQESNSDAGINLIALPAFSQVDPEVFAALPAELQRELKAAYDQR
